In FireProtDB (doi:10.1016/j.jmb.2005.09.091):

B1: Guanyl-specific ribonuclease Sa, P05798 (parent)
chain: DVSGTVCLSALPPEATDTLNLIASDGPFPYSQDGVVFQNRESVLPTQSYGYYHEYTVITPGARTRGTRRIITGEATQEDYYTGDHYATFSLIDQTC

Variants of: B1
Settings: Kitasatospora aureofaciens, Thermal, structure 1RGG, whole UniProt chain shown
[1] = pH 3, 38.6 °C, CD, Glycine 30 mM
[2] = pH 8.5, 45.9 °C, CD, Mops 30 mM

Variant | ddG of mutation (higher = less stable) [1] | heat capacity change of unfolding [1] | Tm (pH 3, CD, Glycine 30 mM) | change of melting temperature, mutant - wild type (higher = more stable) (pH 3, CD, Glycine 30 mM) | unfolding enthalpy (van 't Hoff) (pH 3, CD, Glycine 30 mM) | ddG of mutation (higher = less stable) (pH 7, 52.6 °C, CD, Mops 30 mM) | heat capacity change of unfolding (pH 7, 52.6 °C, CD, Mops 30 mM) | Tm (pH 7, CD, Mops 30 mM) | change of melting temperature, mutant - wild type (higher = more stable) (pH 7, CD, Mops 30 mM) | unfolding enthalpy (van 't Hoff) (pH 7, CD, Mops 30 mM) | ddG of mutation (higher = less stable) [2] | heat capacity change of unfolding [2] | ddG of mutation (higher = less stable) (pH 7, 52.6 °C, DSC, Mops 30 mM) | heat capacity change of unfolding (pH 7, 52.6 °C, DSC, Mops 30 mM) | Tm (pH 8.5, CD, Mops 30 mM) | change of melting temperature, mutant - wild type (higher = more stable) (pH 8.5, CD, Mops 30 mM) | unfolding enthalpy (van 't Hoff) (pH 8.5, CD, Mops 30 mM)
DVSGTVCLSALPPEATDTLNLIASDGPFPYSQDGVVFQNRESVLPTQSYGYYHEYTVITPGARTRGTRRIITGEATQEDYYTGDHYATFSLIDKTC | -0.2 kcal/mol | 1.52 kcal/mol/K | 40.8 °C | 0.9 °C | 64 kcal/mol | -0.3 kcal/mol | 1.52 kcal/mol/K | 48.6 °C | 0.8 °C | 96 kcal/mol | -1.1 kcal/mol | 1.52 kcal/mol/K |  |  |  |  | 
DVSGTVCLSALPPEATDTLNLIASDGPFPYSQAGVVFQNRESVLPTQSYGYYHEYTVITPGARTRGTRRIITGEATQEDYYTGDHYATFSLIDQTC |  |  |  |  |  | 6.2 kcal/mol | 1.52 kcal/mol/K | 31.8 °C | -16 °C | 57 kcal/mol |  |  | 6 kcal/mol | 1.52 kcal/mol/K |  |  | 
DVSGTVCLSALPPEATDTLNLIASDGPFPYSQDGVVFQNRESVLPTQSYGYYHEYTVITPGARTRGTRRIITGEATQEKYYTGDHYATFSLIDQTC |  |  |  |  |  | -2.3 kcal/mol | 1.52 kcal/mol/K | 55.4 °C | 7.6 °C | 88 kcal/mol |  |  | -2.3 kcal/mol | 1.52 kcal/mol/K |  |  | 
DVSGTVCLSALPPEATDTLNLIASDGPFPYSQDGVVFQNRESVLPTQSYGYYHEYTVITPGARTRGTRRIITGEATQERYYTGDHYATFSLIDQTC |  |  |  |  |  | -2.7 kcal/mol | 1.52 kcal/mol/K | 56.8 °C | 9 °C | 92 kcal/mol |  |  | -2.7 kcal/mol | 1.52 kcal/mol/K |  |  | 
DVSGTVCLSALPPEATDTLNLIASDGPFPYSQDGVVFQNRESVLPTQSYGYYHEYTVITPGARTRGTRRIITGEATQENYYTGDHYATFSLIDQTC | 1.2 kcal/mol | 1.52 kcal/mol/K | 35.1 °C | -4.8 °C | 69 kcal/mol | -1.8 kcal/mol | 1.52 kcal/mol/K | 53.4 °C | 5.5 °C | 96 kcal/mol | -2.3 kcal/mol | 1.52 kcal/mol/K | -1.8 kcal/mol | 1.52 kcal/mol/K | 46.3 °C | 7.6 °C | 65 kcal/mol
DVSGTVCLSALPPEATDTLNLIASDGPFPYSQDGVVFQNRESVLPTQSYGYYHEYTVITPGARTRGTRRIITGEATQEIYYTGDHYATFSLIDQTC |  |  |  |  |  | -2.9 kcal/mol | 1.52 kcal/mol/K | 57.4 °C | 9.6 °C | 89 kcal/mol |  |  | -2.8 kcal/mol | 1.52 kcal/mol/K |  |  | 
DVSGTVCLSALPPEATDTLNLIASDGPFPYSQDGVVFQNRESVLPTQSYGYYHEYTVITPGARTRGTRRIITGEATQEWYYTGDHYATFSLIDQTC |  |  |  |  |  | -2.3 kcal/mol | 1.52 kcal/mol/K | 55.4 °C | 7.6 °C | 88 kcal/mol |  |  | -2.3 kcal/mol | 1.52 kcal/mol/K |  |  | 
DVSGTVCLSALPPEATDTLNLIASDGPFPYSQDGVVFQNRESVLPTQSYGYYHEYTVITPGARTRGTRRIITGEATQEFYYTGDHYATFSLIDQTC | 0.3 kcal/mol | 1.52 kcal/mol/K | 38.5 °C | -1.4 °C | 67 kcal/mol |  |  | 57.8 °C | 10 °C | 89 kcal/mol | -3.7 kcal/mol | 1.52 kcal/mol/K | -3 kcal/mol | 1.52 kcal/mol/K | 51.8 °C | 13.1 °C | 82 kcal/mol
DVSGTVCLSALPPEATDTLNLIASDGPFPYSQDGVVFQNRESVLPTQSYGYYHEYTVITPGARTRGTRRIITGEATQEYYYTGDHYATFSLIDQTC |  |  |  |  |  | -2.9 kcal/mol | 1.52 kcal/mol/K | 57.4 °C | 9.6 °C | 84 kcal/mol |  |  |  |  |  |  | 
DVSGTVCLSALPPEATDTLNLIASDGPFPYSQDGVVFQNRESVLPTQSYGYYHEYTVITPGARTRGTRRIITGEATQEAYYTGDHYATFSLIDQTC | 0.3 kcal/mol | 1.52 kcal/mol/K | 38.6 °C | -1.3 °C | 75 kcal/mol | -2.8 kcal/mol | 1.52 kcal/mol/K | 57 °C | 9.2 °C | 94 kcal/mol |  |  | -2.7 kcal/mol | 1.52 kcal/mol/K | 50.4 °C | 11.7 °C | 95 kcal/mol
DVSGTVCLSALPPEATDTLNLIASDGPFPYSQDGVVFQNRESVLPTQSYGYYHEYTVITPGARTRGTRRIITGEATQELYYTGDHYATFSLIDQTC |  |  |  |  |  |  |  | 56.6 °C | 8.7 °C | 75 kcal/mol |  |  | -2.7 kcal/mol | 1.52 kcal/mol/K |  |  | 
DVSGTVCLSALPPEATDTLNLIASDGPFPYSQDGVVFQNRESVLPTQSYGYYHEYTVITPGARTRGTRRIITGEATQEEYYTGDHYATFSLIDQTC |  |  |  |  |  | 0.3 kcal/mol | 1.52 kcal/mol/K | 47 °C | -0.8 °C | 90 kcal/mol |  |  | 0.3 kcal/mol | 1.52 kcal/mol/K |  |  | 
DVSGTVCLSALPPEATDTLNLIASDGPFPYSQDGVVFQNRESVLPTQSYGYYHEYTVITPGARTRGTRRIITGEATQEHYYTGDHYATFSLIDQTC |  |  |  |  |  | -1.8 kcal/mol | 1.52 kcal/mol/K |  |  |  |  |  | -1.8 kcal/mol | 1.52 kcal/mol/K |  |  | 
